System: MS2 coat protein
Assay: apparent KD of MS2 coat protein; designed switch direction (-1 OFF switch, 1 ON switch): -1; higher = weaker reporter binding
Procedure, shortened: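 The apparent KD reported per design is the median over clusters of curve fits to normalised cluster fluorescence. The RNA switches were transcribed on Illumina chips by stalled E. coli RNA polymerase. SNAP-549-labelled MS2 coat protein was titrated from 0.7 or 1.5 nM, doubling up to 3 µM, in Tris-HCl pH 7.5 buffer containing KCl, MgCl2, BSA, DTT, tRNA and Tween-20, with no input, 200 uM small-molecule ligand, or an oligonucleotide input.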

[1] = input ligand: microRNA oligo, concentration not stated
[2] = Eterna round: R95, input ligand: microRNA oligo, concentration not stated
[3] = Eterna round: R95, input ligand: FMN 200 uM
[4] = Eterna round: R95, input ligand: none

Sequence	apparent KD of MS2 coat protein (input ligand: FMN 200 uM)	apparent KD of MS2 coat protein [1]	apparent KD of MS2 coat protein (input ligand: none)	apparent KD of MS2 coat protein [2]	apparent KD of MS2 coat protein [3]	apparent KD of MS2 coat protein [4]
UGUUGUCGCGUAGGAUAUUGUCAACAGGCAAUAGGAUAUGCGAAAGCAGAAGGAUCGCCAACAGGCGAGAAGGACGGGACAACU [pwkr exNG2 2xF7 2xFMN.5] (Eterna round: R96, puzzle: Exclusion NG 2)	142 nM	913 nM	1140 nM	–	–	–
UGUUGUUACGCAGGAUAUGAGGAUCACCCAUAGAAGGAUAUCGAAAGAGAAGGUCUGAGGAUUACCCAGAAGGGCGGGUUAACA [pwkr exNG2 2xF5 2xFMN.1] (Eterna round: R96, puzzle: Exclusion NG 2)	714 nM	153 nM	139 nM	–	–	–
UGUUGUUACGCAGGAUAUGAGGAUCACCCAUAUAAGGAUAUCGAAAGAGAAGGUCUGAGGAUUACCCAGAAGGGCGGGUUAACA [pwkr exNG2 2xF5 2xFMN.29] (Eterna round: R96, puzzle: Exclusion NG 2)	227 nM	65.3 nM	115 nM	–	–	–
UGUUGUUACGCAGGAUAUGCAUGAGGAUCACCCAUGCAACCACAUUUAACAUGAGGAUCACCCAUGUAGAAGGGCGGGUUAACA [pwkr exNG2 2xF5 1xFMN.1] (Eterna round: R96, puzzle: Exclusion NG 2)	77.5 nM	20.4 nM	28 nM	–	–	–
UGUUGUUCAGGAUAUGAAGUAUAUUACAUGAGGAUCACCCAUGUAGAUCCUGAAUAUACAUCAGAAGGGAAUAUUU [JR_Ex5_Sub057] (Eterna round: R97, puzzle: Exclusion 5)	51 nM	–	21.1 nM	–	–	–
UGUUUAUAUGAAGGAUAUACUUAACAUGAGGAUCACCCAUGUGGUGUUGUGAGUGAGUGAGUUUAGUAGAAGGUCAAUGAUUUU [JMF's solution 75] (Eterna round: R96, puzzle: Exclusion NG 2)	1030 nM	200 nM	333 nM	–	–	–
UUAAAUCAUGUAGGAUAUGCGUAGCGAAGCUAUGCAGAAGGACAUGAGGAUCACCCAUGUGCUUGCGUCCGCGUACGGAUGCUA [Mat - Exclusion NG 1 - Mod of JL - D66] (Eterna round: R96, puzzle: Exclusion NG 1)	202 nM	107 nM	134 nM	–	–	–
UUAAAUCAUGUAGGAUAUGCGUGGCGAAGCUAUGCAGAAGGACAUGAGGAUCACCCAUGUUCUUCGGUCUGCGUACAGAUCGAA [JL ENG1 1.07] (Eterna round: R96, puzzle: Exclusion NG 1)	316 nM	20.6 nM	26.8 nM	–	–	–
UUAACAUGCUGGUGAUCAUACAUGAGGAUCACCCAUGUAACAAGCUUUUUGUUCGUCUUAUAAUUUAAGAUCACCAG [Stov1/7-B1] (Eterna round: R97, puzzle: Sensor, turn-off variant 1)	21.6 nM	–	20.3 nM	–	–	–
UUAAUGUGAGGAUAUCAGGUGUGCUAGCGUACUGGUACAUCUGAGAAGGCACAUGAGGAUCACCCAUGUUUCUU [JL-ex4-3.23 Brourd mod] (puzzle: Exclusion 4)	–	–	–	26.7 nM	–	–
UUAAUUAAUGUAGGAUAUGCAAGGCGAACCUAAGCAGAAGGACAUGUGGAUCACCCAUGUAAUGCGGUCUGCGUACAGAUCGCU [salish99_ex1_NG1_001] (Eterna round: R96, puzzle: Exclusion NG 1)	271 nM	1170 nM	1270 nM	–	–	–
UUAAUUAAUUGCGCAAGAUCACAUGAGGAUCACCCAUGUAUAUAGGAUAUCAGCUCGAUUAGAGCUGAGAAGGAUAUACAGCGC [ExNG3/3-A1] (Eterna round: R96, puzzle: Exclusion NG 3)	711 nM	192 nM	313 nM	–	–	–
UUAAUUAAUUUAUUAGAUCCUCACAUGAGGAUCACCCAUGUGCAGGAUAUCAGCUCGUUUAGAGCUGAGAAGGGCACUAUAAAU [ExNG3/10-B2] (Eterna round: R96, puzzle: Exclusion NG 3)	24.6 nM	41.8 nM	38.1 nM	–	–	–
UUAGAAUUGUUAGGAUAUUAAUUAUUUUUUAGUAUGAUCUACAUGAGGAUCACCCAUGUUAAAUAUAAGAAGGAACGUUAUAUU [JR_ExcNG2_Sub096] (Eterna round: R96, puzzle: Exclusion NG 2)	–	49.9 nM	–	–	–	–
UUAGCGUAUGUAAGGAUAUGCUGGUCUAAUGAUCAGCAGAAGGUACAUGAGGAUCACCCAUGUGGAUUCGUUAU [Mod of JL 8 - Jieux - Brourd's mod of Exclusion 4] (Eterna round: R97, puzzle: Brourd's mod of Exclusion 4)	327 nM	–	30 nM	–	–	–
UUAGGCUCUGGUUCGUAUUACAUGAGGAUCACCCAUGUGGCCAAGUGAGUUGGGCCGGUCAUGAUUUUGCUCGUUAU [Eternabot (L2) Solution 13] (Eterna round: R97, puzzle: Sensor, turn-off variant 1)	48.3 nM	–	59.4 nM	–	–	–

Sequence	apparent KD of MS2 coat protein (input ligand: FMN 200 uM)	apparent KD of MS2 coat protein [1]	apparent KD of MS2 coat protein (input ligand: none)	apparent KD of MS2 coat protein [2]	apparent KD of MS2 coat protein [3]	apparent KD of MS2 coat protein [4]
UUAGUAUAGCAAGGAUAUGUUUAUGUAUAGUUGCCUCUUACAUGAGGAUCACCCAUGUUUAACUUACAGAAGGUGCAAUGAUUU [JR_ExcNG2_Sub033] (Eterna round: R96, puzzle: Exclusion NG 2)	279 nM	108 nM	137 nM	–	–	–
UUAGUGUGAGGAUAUGGUAAAGAUAAGAUGAUGAAAGAACUCCAGAAGGCACAUGAGGAUCACCCAUGUAGAUU [Mat - Exclusion 4 - Mod of JL - D25] (puzzle: Exclusion 4)	–	–	–	24.2 nM	53.5 nM	24.2 nM
UUAUAACAUGUAGGAUAUGCGUGGCGAAGCUAUGCAGAAGGACAUGAGGAUCACCCAUGUUCCUGCGUCCGCGUACGGAUGCAA [JL Eng1 1.21 mod 1] (Eterna round: R96, puzzle: Exclusion NG 1)	34.1 nM	14.1 nM	14.3 nM	–	–	–
UUAUAUAAUGUGAGGAUAUGCUGGUCCUUGGAUCAGCAGAAGGCACAUGAGGAUCACCCAUGUAGUAAAUUUUA [JL bmx4 3.02] (puzzle: Brourd's mod of Exclusion 4)	–	–	–	17.9 nM	–	–
UUAUUAUAUGUAGGAUAUGCAUAUUAUUAUUAUGCAGAAGGACAUGAGGAUCACCCAUGUAUAUUGUUGUUGUAUAUUAUAUAU [Title] (Eterna round: R96, puzzle: Exclusion NG 1)	–	20.9 nM	–	–	–	–
UUAUUAUAUGUAGGAUAUGCGUAUUAUUGUUAUGCAGAAGGACAUGAGGAUCACCCAUGUAUAUUAUUGUUAUAUAUUAUAUAU [Title] (Eterna round: R96, puzzle: Exclusion NG 1)	50.2 nM	19.3 nM	29.3 nM	–	–	–
UUAUUUAGUGUGAGGAUAUGCUGGUCCAUAGAUCAGCAGAAGGCACAUGAGGAUCACCCAUGUAAUAUAUUAAU [Mat - Exclusion 4 - JL Mod - D32] (puzzle: Brourd's mod of Exclusion 4)	–	–	–	25.2 nM	–	–
UUAUUUUUUGAGGAUAUGCGACGUUUUUUCGUCGUAGAAGGCGAUACAUGAGGAUCACCCAUGUUUAUGGGCAU [LRO-Ex6-13] (puzzle: Exclusion 6)	–	–	–	73.8 nM	–	–
UUCCAGACAGGAUAUCUAGUGAGCAACAUGAGGAUCACCCAUGUGACCAUCACCGCCCGCAGAGAAGGGUCAACAG [Inbilaus] (puzzle: Exclusion 5)	–	–	–	41.1 nM	55.4 nM	40.2 nM
UUCCGACAUGAGGAUCACCCAUGUAAGGAUAUGCACUAGAGGACAAACCCUCUUAACGGCAGAAGGUGCAGGGA [Solaleisra] (Eterna round: R97, puzzle: Exclusion 1)	40.9 nM	–	18 nM	–	–	–
UUCCUCUUAACAUGAGGAUCACCCAUGUAUUAUUUGGUAAUUGAGGAUAUAUUUUUAAUGUUUAUAUAGAAGGCAAAUACAGUU [JR_ExcNG3_Sub094] (Eterna round: R96, puzzle: Exclusion NG 3)	–	36.1 nM	–	–	–	–
UUCGAGGCAGGAUAUGCGUAGCCACGGAGGAUCACCAAGUAACAUGAGGAUCACCCAUGUAGAAGGGCUAGAGC [Eternabot (L1) Solution 26] (Eterna round: R97, puzzle: Exclusion 2)	60.1 nM	–	76.4 nM	–	–	–
UUCGUGCAGCUUUGCUGUACGAGUACAUGAGGAUCACCCAUGUAGGAUAUGGUACGCUUUGCGUGCCAGAAGGACGUGCGUUAG [salish99_ExNG3_r04_002] (Eterna round: R96, puzzle: Exclusion NG 3)	73.4 nM	34.1 nM	42.1 nM	–	–	–
UUCGUGCAGCUUUGCUGUACGCGUACAUGAGGAUCACCCAUGUAGGAUAUGGUAGGCAAAGCUUACUAGAAGGAUAGAGUGAUC [Mat - Exclusion NG 3 - Mod of JL - D74] (Eterna round: R96, puzzle: Exclusion NG 3)	277 nM	92.8 nM	122 nM	–	–	–
UUCUGGACAGGAUAUGUACUUGAGCACUUGAGGAUCACCCAAGUCUUCAAGUACUCAGGCACAGAAGGGUUAAUUU [jl-ex5.4.66 ViennaUCT mod] (Eterna round: R97, puzzle: Exclusion 5)	58.9 nM	–	25.4 nM	–	–	–
UUCUUCUCUGUUAGGAUAUUCUCCGCAGAUGCCUGGAAGAAGGGACAUGAGGAUCACCCAUGUAGUGUAAGCUA [Eternabot (L2) Solution 58] (Eterna round: R97, puzzle: Brourd's mod of Exclusion 4)	40.6 nM	–	62.8 nM	–	–	–

Reference: the supplement of paper PMC9170038
